Measurements: US20230270824A1, “INTERFERON-BASED CANCER TREATMENT METHOD AND PHARMACEUTICAL COMPOSITION” (XIAMEN AMOYTOP BIOTECH CO., LTD., priority 2019, published 2023)
Where “and” joins values, the source holds several entries; their conditions need not be identical. Identical values can stand only once.

Experiments:
[1] = Pharmacokinetic study of single subcutaneous injection in healthy BALB/c mice (double-antibody sandwich ELISA)
Procedure: 6-8 weeks old, SPF grade BALB/c mice (N=60, with fifty-fifty of male and female mice) were injected with a single injection of 1 μg/mouse PEG-mIFN-α4 subcutaneously on the back of the neck. Plasma samples were collected before the injection (0 h) and after the injection at 15 h, 24 h, 36 h, 48 h, 72 h, 96 h, 120 h, 168 h, 216 h, 264 h, 312 h, to determine the blood concentration. Phoenix WinNonlin 6.4 software was used to calculate the pharmacokinetic parameters.

[2] = tested on: transplanted liver cancer H22; experiment: Continuous vs intermittent administration, transplanted liver cancer H22 in mice (Example 4); assay type: in vivo, BALB/c mice; conditions: continuous administration: 1 μg s.c. once every 48 hours, 21 times, Day 40 after tumor inoculation
[3] = tested on: transplanted liver cancer H22; experiment: Interferon combined with gemcitabine, transplanted liver cancer H22 in mice (Example 5); assay type: in vivo, BALB/c mice; conditions: 108 days observation
Procedure: In this example, a comparative study on the efficacy of PEG-mIFN-α4 intermittent administration (once every 48 hours for three consecutive times, then drug withdrawal for 144 hours; for 8 rounds), PEG-mIFN-α4 continuous administration (once every 48 hours for 42 consecutive times), PEG-mIFN-α4 in combination with gemcitabine (PEG-mIFN-α4: once every 48 hours for three consecutive times, then drug withdrawal for 240 hours, 6 rounds; gemcitabine: once a week) on H22 transplanted liver cancer in mice was performed.
(§1) On the day when the tumor was inoculated, they were randomly divided into PEG-mIFN-α4 continuous administration group (N=24, female 12, male 12), PEG-mIFN-α4 intermittent administration group (N=24, female 12, male 12), the normal saline control group (N=24, female 12, male 12), the gemcitabine only group (N=24, female 12, male 12), and PEG-mIFN-α4 combined with gemcitabine group (N=24, female 12, male 12).
Gemcitabine was injected intraperitoneally, 60 mg/kg.
(§2) For the PEG-mIFN-α4 intermittent administration group, PEG-mIFN-α4 was administered once every 48 hours for three consecutive times, then drug withdrawal for 144 hours; for 8 rounds. For the PEG-mIFN-α4 continuous administration group, PEG-mIFN-α4 was administered once every 48 hours. For the PEG-mIFN-α4 combined with gemcitabine group, PEG-mIFN-α4 was administered once every 48 hours for three consecutive times, then drug withdrawal for 240 hours; for 6 rounds; and gemcitabine was administered once a week. For the gemcitabine only group, gemcitabine was administered once a week. For the saline control group, equal volume of saline was administered.
Survival analysis was performed for all groups to compare the differences between groups.

[4] = tested on: transplanted melanoma B16; experiment: Interferon combined with gemcitabine, transplanted melanoma B16 in mice (Example 8); assay type: in vivo, C57BL/6N mice
Procedure: In this example, a comparative study on the efficacy of PEG-mIFN-α4 intermittent administration (once every 48 hours for 3 consecutive times, then drug withdrawal for 240 hours; for 4 rounds), PEG-mIFN-α4 continuous administration (once every 48 hours for 24 consecutive times), PEG-mIFN-α4 in combination with gemcitabine (PEG-mIFN-α4: once every 48 hours for 3 consecutive times, then drug withdrawal for 240 hours, 4 rounds; gemcitabine: once a week) on transplanted melanoma B16 in mice was performed.
as §1, with “(N=28,” for “(N=24,”, “14,” for “12,”, “14),” for “12),”, “14).” for “12).”
as §2, with “for 3” for “for three”, “for 240” for “for 144”, “for 4” for “for 8”, “for 4” for “for 6”, “administered. Gemcitabine was injected intraperitoneally, 60 mg/kg.” for “administered.”
SAS9.4 software was used for comparing the difference in mortality, and the statistical tests were all two-sided tests.

B1: PEG-mIFN-α4: deglycosylated recombinant mouse interferon α4 modified with 40 kD Y-type polyethylene glycol (YPEG-NHS); SEQ ID NO: 6 (protein)
chain: CDLPHTYNLGNKRALTVLEEMRRLPPLSCLKDRKDFGFPLEKVDNQQIQKAQAILVLRDLTQQILNLFTSKDLSATWNATLLDSFCNDLHQQLNDLKACVMQEPPLTQEDSLLAVRTYFHRITVYLRKKKHSLCAWEVIRAEVWRALSSSTNLLARLSEEKE
modifications: 40 kD Y-type PEG; deglycosylated; amino acid sequence of peginterferon murine 4
In the case of B1, the Individual blood concentration ([1]; collected at 96 h, individual mice 1-5, single s.c. 1 μg/mouse) is reported as 87.5 ng/mL, the “Cl_F—obs” value ([1]; mouse, in vivo, sc) is reported as 0.07 mL/h and the T1/2 ([1]; mouse, in vivo, sc) is reported as 28.3 h. The Tmax ([1]; mouse, in vivo, sc) was 24 h, the “Vz_F—obs” value ([1]; mouse, in vivo, sc) was 2.91 mL and the “Median survival period (Time after tumor inoculation, days)” value [2] was 38 days and 38.0 days. For the same molecule, the “Mean survival period (days post tumor inoculation)” value ([3]; continuous administration: 1 μg/mouse s.c. once every 48 hours, 42 times) was 37.0 days, the “Mean survival period (days post tumor inoculation)” value ([3]; intermittent administration: 1 μg/mouse s.c. every 48 h x3, withdrawal 144 h, 8 rounds) was 64.0 days and the Mortality ([4]; continuous administration (once every 48 hours), 46 days after tumor inoculation) was 100%. It also gave a Mortality ([4]; continuous administration (once every 48 hours, 24 times), Table 7, day not printed for this cell (footnotes: Day 46 / Day 48)) of 100%, a Mortality ([4]; intermittent administration (every 48 h x3, withdrawal 240 h, 4 rounds), 46 days after tumor inoculation) of 39.3% and a Mortality ([4]; intermittent administration (every 48 h x3, withdrawal 240 h, 4 rounds), 48 days after tumor inoculation) of 46.4%.
